Experimental data taken from article PMC10786891, “Massively parallel profiling of RNA-targeting CRISPR-Cas13d”.
Positions count from the first letter of the chain named. Numbers in names are those of the source.

T1: EsCas13d, nuclease-dead (Eubacterium siraeum, UniProt B0MS50, R295A;H300A;R849A;H854A)
T1 sequence: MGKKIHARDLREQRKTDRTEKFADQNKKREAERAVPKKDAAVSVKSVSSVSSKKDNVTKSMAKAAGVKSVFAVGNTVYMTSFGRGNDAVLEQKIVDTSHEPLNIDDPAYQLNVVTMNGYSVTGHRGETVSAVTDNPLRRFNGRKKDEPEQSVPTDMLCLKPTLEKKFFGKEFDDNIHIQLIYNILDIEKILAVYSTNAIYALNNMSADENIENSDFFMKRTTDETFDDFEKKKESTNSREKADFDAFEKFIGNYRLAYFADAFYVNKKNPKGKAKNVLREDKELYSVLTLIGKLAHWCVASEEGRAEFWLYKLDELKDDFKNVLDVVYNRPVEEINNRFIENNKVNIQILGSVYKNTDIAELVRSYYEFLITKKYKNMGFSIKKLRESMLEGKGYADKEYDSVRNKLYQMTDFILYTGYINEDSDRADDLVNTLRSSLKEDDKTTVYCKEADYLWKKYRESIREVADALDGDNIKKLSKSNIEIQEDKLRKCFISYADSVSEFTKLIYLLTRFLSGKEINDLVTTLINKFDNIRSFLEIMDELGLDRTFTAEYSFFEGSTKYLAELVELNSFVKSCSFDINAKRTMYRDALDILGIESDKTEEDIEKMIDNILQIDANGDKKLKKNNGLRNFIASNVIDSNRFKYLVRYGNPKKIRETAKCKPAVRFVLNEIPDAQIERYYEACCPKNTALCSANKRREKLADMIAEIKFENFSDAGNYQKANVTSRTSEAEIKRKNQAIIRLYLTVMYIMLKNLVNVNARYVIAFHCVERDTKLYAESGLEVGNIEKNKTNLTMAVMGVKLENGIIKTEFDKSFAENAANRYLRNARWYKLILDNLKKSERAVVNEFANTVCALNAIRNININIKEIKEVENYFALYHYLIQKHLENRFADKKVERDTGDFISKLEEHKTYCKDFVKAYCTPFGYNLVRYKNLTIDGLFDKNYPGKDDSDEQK

B1: target 1 U3G,U8A (mixed)
RNA 1: CACCCGUGCAAAAAUGCAGGGGUCUAAAACUGAGCGGAUAACCUCUCUAUGG
RNA 2: GGGAAUGGAUCCACAUCUACGAAUUCGUACCAUAGAGAGGUUAACCGCGCACCGAGAUCGGAAGAGCACACGU
B2: target 1 C6A,A9U (mixed)
RNA 1: B1 RNA 1
RNA 2: B1 RNA 2 with A43U, A44U, C46A, G49U
B3: target 1 C2A,A9U (mixed)
RNA 1: B1 RNA 1
RNA 2: B1 RNA 2 with A43U, A44U, G49U, C50A
B4: target 1 insC 3' of 20,insG 3' of 6 (mixed)
RNA 1: B1 RNA 1
RNA 2: GGGAAUGGAUCCACAUCUACGAAUUCGUACCACUAGAGAGGUUAUCCGGCUCACCGAGAUCGGAAGAGCACACGU
B5: target 2 MT 5'PFS AAC 3'PFS CAC (mixed)
RNA 1: CACCCGUGCAAAAUUGCAGGGGUCUAAAACCUUCUCCAAAUUGUUUCAUCCU
RNA 2: GGGAAUGGAUCCACAUCUACGAAUUCAACAGGAUGAAACAAUUUGGAGAAGCACAGAUCGGAAGAGCACACGU
B6: target 2 MT 5'PFS GCU 3'PFS AAG (mixed)
RNA 1: B5 RNA 1
RNA 2: B5 RNA 2 with A27G, A28C, C29U, C52A, C54G
B7: target 2 MT 5'PFS GGC 3'PFS AGU (mixed)
RNA 1: B5 RNA 1
RNA 2: B5 RNA 2 with A27G, A28G, C52A, A53G, C54U
B8: target 2 MT 5'PFS UCG 3'PFS CUA (mixed)
RNA 1: B5 RNA 1
RNA 2: B5 RNA 2 with A27U, A28C, C29G, A53U, C54A
B9: target 2 MT 5'PFS AAU 3'PFS CUG (mixed)
RNA 1: B5 RNA 1
RNA 2: B5 RNA 2 with C29U, A53U, C54G
B10: target 2 MT 5'PFS AGC 3'PFS CUU (mixed)
RNA 1: B5 RNA 1
RNA 2: B5 RNA 2 with A28G, A53U, C54U
B11: target 2 MT 5'PFS UUU 3'PFS AAG (mixed)
RNA 1: B5 RNA 1
RNA 2: B5 RNA 2 with A27U, A28U, C29U, C52A, C54G
B12: target 2 MT 5'PFS UUU 3'PFS CCU (mixed)
RNA 1: B5 RNA 1
RNA 2: B5 RNA 2 with A27U, A28U, C29U, A53C, C54U
B13: target 2 MT 5'PFS AAC 3'PFS CAA (mixed)
RNA 1: B5 RNA 1
RNA 2: B5 RNA 2 with C54A
B14: target 2 MT 5'PFS GAU 3'PFS AUC (mixed)
RNA 1: B5 RNA 1
RNA 2: B5 RNA 2 with A27G, C29U, C52A, A53U
B15: target 2 MT 5'PFS UUU 3'PFS CCA (mixed)
RNA 1: B5 RNA 1
RNA 2: B5 RNA 2 with A27U, A28U, C29U, A53C, C54A
B16: target 2 MT 5'PFS CAU 3'PFS CCC (mixed)
RNA 1: B5 RNA 1
RNA 2: B5 RNA 2 with A27C, C29U, A53C
B17: target 2 MT 5'PFS GAU 3'PFS AUA (mixed)
RNA 1: B5 RNA 1
RNA 2: B5 RNA 2 with A27G, C29U, C52A, A53U, C54A
B18: target 2 MT 5'PFS UUU 3'PFS AAU (mixed)
RNA 1: B5 RNA 1
RNA 2: B5 RNA 2 with A27U, A28U, C29U, C52A, C54U
B19: target 2 MT 5'PFS AAU 3'PFS CCG (mixed)
RNA 1: B5 RNA 1
RNA 2: B5 RNA 2 with C29U, A53C, C54G
B20: target 2 MT 5'PFS GCU 3'PFS AAC (mixed)
RNA 1: B5 RNA 1
RNA 2: B5 RNA 2 with A27G, A28C, C29U, C52A
B21: target 2 MT 5'PFS AAU 3'PFS CUU (mixed)
RNA 1: B5 RNA 1
RNA 2: B5 RNA 2 with C29U, A53U, C54U
B22: target 2 MT 5'PFS UUU 3'PFS AAA (mixed)
RNA 1: B5 RNA 1
RNA 2: B5 RNA 2 with A27U, A28U, C29U, C52A, C54A
B23: target 2 MT 5'PFS AAG 3'PFS UCC (mixed)
RNA 1: B5 RNA 1
RNA 2: B5 RNA 2 with C29G, C52U, A53C
B24: target 2 MT 5'PFS GUA 3'PFS UCU (mixed)
RNA 1: B5 RNA 1
RNA 2: B5 RNA 2 with A27G, A28U, C29A, C52U, A53C, C54U
B25: target 2 MT 5'PFS GCU 3'PFS AAU (mixed)
RNA 1: B5 RNA 1
RNA 2: B5 RNA 2 with A27G, A28C, C29U, C52A, C54U
B26: target 2 MT 5'PFS AGC 3'PFS CUA (mixed)
RNA 1: B5 RNA 1
RNA 2: B5 RNA 2 with A28G, A53U, C54A
B27: target 2 MT 5'PFS GGC 3'PFS AGA (mixed)
RNA 1: B5 RNA 1
RNA 2: B5 RNA 2 with A27G, A28G, C52A, A53G, C54A
B28: target 2 MT 5'PFS AAC 3'PFS CAG (mixed)
RNA 1: B5 RNA 1
RNA 2: B5 RNA 2 with C54G
B29: target 2 MT 5'PFS AAG 3'PFS UCU (mixed)
RNA 1: B5 RNA 1
RNA 2: B5 RNA 2 with C29G, C52U, A53C, C54U
B30: target 2 MT 5'PFS AGC 3'PFS CUG (mixed)
RNA 1: B5 RNA 1
RNA 2: B5 RNA 2 with A28G, A53U, C54G
B31: target 2 MT 5'PFS GCU 3'PFS AAA (mixed)
RNA 1: B5 RNA 1
RNA 2: B5 RNA 2 with A27G, A28C, C29U, C52A, C54A
B32: target 2 MT 5'PFS AGC 3'PFS CUC (mixed)
RNA 1: B5 RNA 1
RNA 2: B5 RNA 2 with A28G, A53U
B33: target 2 MT 5'PFS GGC 3'PFS AGC (mixed)
RNA 1: B5 RNA 1
RNA 2: B5 RNA 2 with A27G, A28G, C52A, A53G
B34: target 2 MT 5'PFS GAU 3'PFS AUG (mixed)
RNA 1: B5 RNA 1
RNA 2: B5 RNA 2 with A27G, C29U, C52A, A53U, C54G
B35: target 2 MT 5'PFS GGC 3'PFS AGG (mixed)
RNA 1: B5 RNA 1
RNA 2: B5 RNA 2 with A27G, A28G, C52A, A53G, C54G
B36: target 2 MT 5'PFS AAU 3'PFS CUC (mixed)
RNA 1: B5 RNA 1
RNA 2: B5 RNA 2 with C29U, A53U
B37: target 2 MT 5'PFS UUU 3'PFS AAC (mixed)
RNA 1: B5 RNA 1
RNA 2: B5 RNA 2 with A27U, A28U, C29U, C52A

Target: T1, EsCas13d, nuclease-dead
Assay: crRNA (strand 1, pre-loaded); Mg2+; 40 mM Tris-HCl pH 7.5, 150 mM NaCl, 6 mM MgCl2, 1 mM DTT, 0.1% Tween-20, 0.2 mg/ml BSA; 25 C; 10 min per concentration, then washed
Details: tags: His6-TwinStrep-SUMO cleaved; N-terminal SNAP kept (SNAP-Surface 488); label: 3' end held by stalled T7 RNA polymerase

Binder	Kd [nM]
B1	12 ± 0.6
B2	7.38 ± 0.22
B3	8.3 ± 0.4
B4	7.5 ± 0.4
B5	6.2 ± 2
B6	11.3 ± 2
B7	11.5 ± 0.8
B8	32 ± 10
B9	4.2 ± 0.5
B10	11.7 ± 1.5
B11	7.1 ± 0.9
B12	52 ± 15
B13	~7
B14	10.5 ± 1.8
B15	18.1 ± 2.5
B16	16 ± 6
B17	14 ± 6
B18	9.9 ± 1.2
B19	5.9 ± 0.7

Binder	Kd [nM]
B20	10.1 ± 1.9
B21	9.4 ± 2
B22	8.9 ± 1.2
B23	16.3 ± 2.5
B24	18.6 ± 2.7
B25	12 ± 4
B26	8.6 ± 1.5
B27	10.4 ± 2
B28	3.6 ± 0.6
B29	20 ± 6
B30	16.5 ± 3.4
B31	5.9 ± 1
B32	11.5 ± 2.8
B33	12.1 ± 1.6
B34	11.8 ± 1.1
B35	14.9 ± 1.8
B36	7.3 ± 0.8
B37	7.3 ± 0.8
